B1: library; numbered along this chain (parent)
chain: MRKPRAAVGSGHRKQAASQEGRQKHAKNNSQAKPSACDGLARQPEEVVLQASVSSYHLFRDVAEVTAFRGSLLSWYDQEKRDLPWRRRAEDEMDLDRRAYAVWVSEVMLQQTQVATVINYYTGWMQKWPTLQDLASASLEEVNQLWAGLGYYSRGRRLQEGARKVVEELGGHMPRTAETLQQLLPGVGRYTAGAIASIAFGQATGVVDGNVARVLCRVRAIGADPSSTLVSQQLWGLAQQLVDPARPGDFNQAAMELGATVCTPQRPLCSQCPVESLCRARQRVEQEQLLASGSLSGSPDVEECAPNTGQCHLCLPPSEPWDQTLGVVNFPRKASRKPPREESSATCVLEQPGALGAQILLVQRPNSGLLAGLWEFPSVTWEPSEQLQRKALLQELQRWAGPLPATHLRHLGEVVHTFSHIKLTYQVYGLALEGQTPVTTVPPGARWLTQEEFHTAAVSTAMKKVFRVYQGQQPGTCMGSKRSQVSSPCSRKKPRMGQQVLDNFFRSHISTDAHSLNSAAQ

In the data set the parent is B1. Put plainly: 8OG:A repair function score (normalized; synonymous = 0, nonsense = -1) (normalized log-likelihood score); higher = more repair activity (WT-like). Particulars: with 8OG:A DNA repair reporter (GFP) in HEK-293 MUTYH KO cells. The protocol: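 Saturation mutagenesis (NNN codon scan) of the MUTYH cDNA (521-aa nuclear isoform NM_001048174.1 / NP_001041639), stably expressed under doxycycline induction in HEK-293 MUTYH knockout cells. Cells were co-transfected with an 8OG:A-bearing GFP repair reporter plus mCherry and sorted 72 h later into GFP+ and GFP− bins, three replicates per tile. The Rosace log2 enrichment (GFP+ vs GFP−) was converted per tile to a normalized function score with synonymous variants centered at 0 and nonsense variants (codons 1-471) at -1; low-abundance variants were removed.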
As for MRKPRAAVGSGHRKQAASQEGRQKHAKNNSQAKPSACDGLARQPEEVVLQASVSSYHLFRDVAEVTAFRGSLLSWYDQEKRDLPWRRRAEDEMDLDRRAYAVWVSEVMLQQTQVATVINYYTGWMQKWPTLQDLASASLEEVNQLWAGLGYYSRGRRLQEGARKVVEELGGHMPRTAETLQQLLPGVGRYTAGAIASIAFGQATGVVDGNVARVLCRVRAIGADPSSTLVSQQLWGLAQQLVDPARPGDFNQAAMELGATVYTPQRPLCSQCPVESLCRARQRVEQEQLLASGSLSGSPDVEECAPNTGQCHLCLPPSEPWDQTLGVVNFPRKASRKPPREESSATCVLEQPGALGAQILLVQRPNSGLLAGLWEFPSVTWEPSEQLQRKALLQELQRWAGPLPATHLRHLGEVVHTFSHIKLTYQVYGLALEGQTPVTTVPPGARWLTQEEFHTAAVSTAMKKVFRVYQGQQPGTCMGSKRSQVSSPCSRKKPRMGQQVLDNFFRSHISTDAHSLNSAAQ [C262Y], the “8OG:A repair function score” value was -1.21. For the variant MRKPRAAVGSGHRKQAASQEGRQKHAKNNSQAKPSACDGLARQPEEVVLQASVSSYHLFRDVAEVTAFRGSLLSWYDQEKRDLPWRRRAEDEMDLDRRAYAVWVSEVMLQQTQVATVINYYTGWMQKWPTLQDLASASLEEVNQLWAGLGYYSRGRRLQEGARKVVEELGGHMPRTAETLQQLLPGVGRYTAGAIASIAFGQATGVVDGNVARVLCRVRAIGADPSSTLVSQQLWGLAQQLVDPARPGDFNQAAMELGATVCTPQRPLCSQCPVESLCRARQRVEQEQLLASGSLSGSPDVEECAPNTGQCHLCLPPSEPWDQTLGVVNFPRKASRKPPREESSATCVLEQPGALGAQILLVQRPNSGLLAGLWEFPSVTWEPSEQLQRKALLQELQRWAGPLPATHLRHLGEVVHTFSHIKLTYQVYGLALEGQTPVTTVPPGARWLTQEEFHTAAVSTAMKKVFRVYQGQQPGTCMGSKASQVSSPCSRKKPRMGQQVLDNFFRSHISTDAHSLNSAAQ [R482A], the “8OG:A repair function score” value came to 0.0234. Then MRKPRAAVGSGHRKQAASQEGRQKHAKNNSQAKPSACDGLARQPEEVVLQASVSSYHLFRDVAEVTAFRGSLLSWYDQEKRDLPWRRRAEDEMDLDRRAYAVWVSEVMLQQTQVATVINYYTGWMQKWPTLQDLASASLEEVNQLWAGLGYYSRGRRLQEGARKVVEELGGHMPRTAETLQQLLPGVGRYTAGAIASIAFGQATGVVDGNVARVLCRVRAIGADPSSTLVSQQLWGLAQQLVDPARPGDFNQAAMELGATVCTPQRPLCSQCPVESLCRARQRVEQEQLLASGSLSGSPDVEECAPNTGQCHLCLPPSEPWDQTLGVVNFPRKASRKPPREESSATCVLEQPGALGAQILLVQRPNSGLLAGLWEFPSVTWEPSEQLQRKALLQELQRWAGPLPATHLRHLGEVVHTFSHIKLTYQVYGLALEGQTPVTTVPPGARWLTQEEFHTAAVSTAMKKVFYVYQGQQPGTCMGSKRSQVSSPCSRKKPRMGQQVLDNFFRSHISTDAHSLNSAAQ [R467Y], with -0.0417; and MRKPRAAVGSGHRKQAASQEGRQKHAKNNSQAKPSACDGLARQPEEVVLQASVSSYHLFRDVAEVTAFRGSLLSWYDQEKRDLPWRRRAEDEMDLDRRAYAVWVSEVMLQQTQVATVINYYTGWMQKWPTLQDLASASLEEVNQLWAGLGYYSRGRRLQEGARKVVEELGGHMPRTAETLQQLLPGVGRYTAGAIASIAFGQATGVVDGNVARVLCRVRAIGADPSSTLVSQQLWGLAQQLVDPARPGDFNQAAMELGATVCTPQRPLCSQCPVESLCRARQRVEQEQLLASGSLSGSPDVEECAPNTGQCHLCLPPSEPWDQTLGVVNFPRKASRKPPREESSATCVLEQPGALGAQILLVQRPNSGLLAGLWEFPSVTWEPSEQLQRKALLQELQRWAGPLPATHLRHLGEVVHTFSHIKLTYQVYGLALEGQTPVTTVPPGARWLTQEEFHTAAVSTAMKKVFRVYQGQQPGTCMGSKRSQVSSPCSRKKPRMGQQVLANFFRSHISTDAHSLNSAAQ [D502A], with -0.0186.

As to MRKPRAAVGSGHRKQAASQEGRQKHAKNNSQAKPSACDGLARQPEEVVLQASVSSYHLFRDVAEVTAFRGSLLSWYDQEKRDLPWRRRAEDEMDLDRRAYAVWVSEVMLQQTQVATVINYYTGWMQKWPTLQDLASASLEEVNQLWAGLGYYSRGRRLQEGARKVVEELGGHMPRTAETLQQLLPGVGRYTVGAIASIAFGQATGVVDGNVARVLCRVRAIGADPSSTLVSQQLWGLAQQLVDPARPGDFNQAAMELGATVCTPQRPLCSQCPVESLCRARQRVEQEQLLASGSLSGSPDVEECAPNTGQCHLCLPPSEPWDQTLGVVNFPRKASRKPPREESSATCVLEQPGALGAQILLVQRPNSGLLAGLWEFPSVTWEPSEQLQRKALLQELQRWAGPLPATHLRHLGEVVHTFSHIKLTYQVYGLALEGQTPVTTVPPGARWLTQEEFHTAAVSTAMKKVFRVYQGQQPGTCMGSKRSQVSSPCSRKKPRMGQQVLDNFFRSHISTDAHSLNSAAQ [A192V], the “8OG:A repair function score” value was -0.943. Next, MRKPRAAVGSGHRKQAASQEGRQKHAKNNSQAKPSACDGLARQPEEVVLQASVSSYHLFRDVAEVTAFRGSLLSWYDQEKRDLPWRRRAEDEMDLDRRAYAVWVSEVMLQQTQVATVINYYTGWMQKWETLQDLASASLEEVNQLWAGLGYYSRGRRLQEGARKVVEELGGHMPRTAETLQQLLPGVGRYTAGAIASIAFGQATGVVDGNVARVLCRVRAIGADPSSTLVSQQLWGLAQQLVDPARPGDFNQAAMELGATVCTPQRPLCSQCPVESLCRARQRVEQEQLLASGSLSGSPDVEECAPNTGQCHLCLPPSEPWDQTLGVVNFPRKASRKPPREESSATCVLEQPGALGAQILLVQRPNSGLLAGLWEFPSVTWEPSEQLQRKALLQELQRWAGPLPATHLRHLGEVVHTFSHIKLTYQVYGLALEGQTPVTTVPPGARWLTQEEFHTAAVSTAMKKVFRVYQGQQPGTCMGSKRSQVSSPCSRKKPRMGQQVLDNFFRSHISTDAHSLNSAAQ [P129E]: -0.084; MRKPRAAVGSGHRKQAASQEGRQKHAKNNSQAKPSACDGLARQPEEVVLQASVSSYHLFRDVAEVTAFRGSLLSWYDQEKRDLPWRRRAEDEMDLDRRAYAVWVSEVMLQQTQVATVINYYTGWMQKWPTLQDLASASLEEVNQLWAGLGYYSRGRRLQEGARKVVEELGGHMPRTAETLQQLLPGVGRYTAGAIASIAFGQATGVVDGNVARVLCRVRAIGADPSSTLVSQQLWGLAQQLVDPARPGDFNQAAMELGATVCTPQRPLCSQCPVESLCRARQRVEQEQLLASGSLSGSPDVEECAPNTGQCHLCLPPSEPWDQTLGVVNFPRKASRKPPREESSATCVLEQPGALGAQILLVQRPNSGLLAGLWEFPSVTWEPSEQLQRKALLQELQRWAGPLPATHLRHLGEVVHTFSHIKLTYQVYGLALEGQTPVTTVPPGARWLTQEEFHTAAVSTAMKKVWRVYQGQQPGTCMGSKRSQVSSPCSRKKPRMGQQVLDNFFRSHISTDAHSLNSAAQ [F466W]: -0.0618. Next, MRKPRAAVGSGHRKQAASQEGRQKHAKNNSQAKPSACDGLARQPEEVVLQASVSSYHLFRDVAEVTAFRGSLLSWYDQEKRDLPWRRRAEDEMDLDRRAYAVWVSEVMLQQTQVATVINYYTGWMQKWPTLQDLASASLEEVNQLWAGLGYYSRGRRLQEGARKVVEELGGHMPRTAETLQQLLPGVGRYTAGAIASIAFGQATGVVDGNVARVLCRVRAIGADPSSTLVSQQLWGLAQQLVDPARPGDFNQAAMELGATVCTPQRPLCSQCPVESLCRARQRVEQEQLLASGSLSGSPDVEECAPNTGQCHLCLPPSEPWDQTLGVVNFPRKASRKPPREESSATCVLEQPGALGAQILFVQRPNSGLLAGLWEFPSVTWEPSEQLQRKALLQELQRWAGPLPATHLRHLGEVVHTFSHIKLTYQVYGLALEGQTPVTTVPPGARWLTQEEFHTAAVSTAMKKVFRVYQGQQPGTCMGSKRSQVSSPCSRKKPRMGQQVLDNFFRSHISTDAHSLNSAAQ [L361F]: -0.49; MRKPRAAVGSGHRKQAASQEGRQKHAKNNSQAKPSACDGLARQPEEVVLQASVSSYHLFRDVAEVTAFRGSLLSWYDQEKRDLPWRRRAEDEMDLDRRAYAVWVSEVMLQQTQVATVINYYTGWMQKWPTLQDLASASLEEVNQLWAGLGYYSRGRRLQEGARKVVEELGGHMPRTAETLQQLLPGVGRYTAGAIASIAFGQATGVVDGNVARVLCRVRAIGADPSSTLVSQQLWGLAQQLVDPARPGDFNQAAMELGATVCTPQRPLCSQCPVESLCRARQRVEQEQLLASGSLSGSPDVEECAPNTGQCHLCLPPSEPWDQTLGVVNFPRKASRKPPREESSATCVLEQPGALGAQILLVQRPNSGLLAGLWEFPSVTWEPSEQLQRKALLQELQRWAGPLPATHLRHLGEVVHTFSHIKLTYQVYGLALEGQTPVTTVPPGARWLTQEEFHTAAVSTAMKKVFRVYQGQQPGTCMGSKRSQCSSPCSRKKPRMGQQVLDNFFRSHISTDAHSLNSAAQ [V485C]: 0.0143. Next, MRKPRAAVGSGHRKQAASQEGRQKHAKNNSQAKPSACDGLARQPEEVVLQASVSSYHLFRDVAEVTAFRGSLLSWYDQEKRDLPWRRRAEDEMDLDRRAYAVWVSEVMLQQTQVATVINYYTGWMQKWPTLQDLASASLEEVNQLWAGLGYYSRGRRLQEGARKVVEELGGHMPRTAETLQQLLPGVGRYTAGAIASIAFGQATGVVDGNVARVLCRVRAIGADPSSTLVSQQLWGLAQQLVDPARPGDFNQAAMELGATVCTPQRPLCSQCPVESLCRARQRVEQEQLLASGSLSGSPDVEECAPNTGQCHLCLPPSEPWDQTLGVVNFPRKASRKPPREESSATCVLEQPGALGAQILLVQRPNSGLLAGLWEFPSVTWEISEQLQRKALLQELQRWAGPLPATHLRHLGEVVHTFSHIKLTYQVYGLALEGQTPVTTVPPGARWLTQEEFHTAAVSTAMKKVFRVYQGQQPGTCMGSKRSQVSSPCSRKKPRMGQQVLDNFFRSHISTDAHSLNSAAQ [P383I]: -0.14. In the case of MRKPRAAVGSGHRKQAASQEGRQKHAKNNSQAKPSACDGLARQPEEVVLQASVSSYHLFRDVAEVTAFRGSLLSWYDQEKRDLPIRRRAEDEMDLDRRAYAVWVSEVMLQQTQVATVINYYTGWMQKWPTLQDLASASLEEVNQLWAGLGYYSRGRRLQEGARKVVEELGGHMPRTAETLQQLLPGVGRYTAGAIASIAFGQATGVVDGNVARVLCRVRAIGADPSSTLVSQQLWGLAQQLVDPARPGDFNQAAMELGATVCTPQRPLCSQCPVESLCRARQRVEQEQLLASGSLSGSPDVEECAPNTGQCHLCLPPSEPWDQTLGVVNFPRKASRKPPREESSATCVLEQPGALGAQILLVQRPNSGLLAGLWEFPSVTWEPSEQLQRKALLQELQRWAGPLPATHLRHLGEVVHTFSHIKLTYQVYGLALEGQTPVTTVPPGARWLTQEEFHTAAVSTAMKKVFRVYQGQQPGTCMGSKRSQVSSPCSRKKPRMGQQVLDNFFRSHISTDAHSLNSAAQ [W85I], the “8OG:A repair function score” value was -0.792.

As for MRKPRAAVGSGHRKQAASQEGRQKHAKNNSQAKPSACDGLARQPEEVVLQASVSSYHLFRDVAEVTAFRGSLLSWYDQEKRDLPWRRRAEDEMDLDRRAYAVWVSEVMLQQTQVATVINYYTGWMQKWPTLQDLASASLEEVNQLWAGLGYYSRGRRLQEGARKVVEELGGHMPRTAETLQQLLPGVGRYTAGAIASIAFGQATGVVDGNVARVLCRVRAIGADPSSTLVSQQLWGLAQQLVDPARPGDFNQAAMELGATVCTPQRPLCSQCPVESLCRARQRVEQEQLLASGSLSGSPDVEECAPNTGQCHLCLPPSEPWDQTLGVVNFPRKASRKPPREESSATCVLEQPGALGAQILLVQRPNSGLLAGLWEFPIVTWEPSEQLQRKALLQELQRWAGPLPATHLRHLGEVVHTFSHIKLTYQVYGLALEGQTPVTTVPPGARWLTQEEFHTAAVSTAMKKVFRVYQGQQPGTCMGSKRSQVSSPCSRKKPRMGQQVLDNFFRSHISTDAHSLNSAAQ [S378I], the “8OG:A repair function score” value is -0.143.

For the origin of these results see the supplement of paper PMC11908140.
